Measured values reported in patent publication US20160340421A1 (Regeneron, published 2016).

Legend:
[1] = target: T1, Human GDF8 homodimer (mature human Growth and Differentiation Factor-8) (human, UniProt O14793 267-375); assay: SPR Biacore 3000, buffer without BSA
T1 construct: also called hGDF8; myostatin
T1 sequence: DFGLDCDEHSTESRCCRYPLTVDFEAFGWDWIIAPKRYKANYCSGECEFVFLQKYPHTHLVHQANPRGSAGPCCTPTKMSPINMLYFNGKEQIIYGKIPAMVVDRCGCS

[2] = target: T2, B48 chimera: GDF8.1-47.BMP2.48-77.GDF8.73-109; assay: Western blot of CHO.hFurin supernatant
T2 construct: CHO.hFurin supernatant
T2 chain: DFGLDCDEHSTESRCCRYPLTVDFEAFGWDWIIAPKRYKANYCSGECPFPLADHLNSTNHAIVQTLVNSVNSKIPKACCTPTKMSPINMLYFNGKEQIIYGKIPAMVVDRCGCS
Protocol: (§1) The various chimeric GDF8 pro-proteins were transiently transfected in an engineered stable CHO.hFurin cell line. A similar Western Blot analysis as described above was used to detect the binding of various anti-hGDF8 antibodies to each of the chimeric GDF8. Briefly, […] of CHO supernatant were loaded onto each lane of an SDS-PAGE (non-reducing or reducing) gel and electroblotted onto a PVDF membrane. The membrane was then incubated with an anti-GDF8 antibody at 2 μg/ml followed by exposure to the appropriate secondary antibody conjugated to HRP.

[3] = target: T3, GDF8/TGFβ[48-72] chimera (T48): GDF8.1-47.TGFβ1.49-76.GDF8.73-109 (human GDF8 with human TGFβ-1 sequence); assay: Western blot of CHO.hFurin supernatant
T3 construct: used as CHO conditioned medium / supernatant; also called GDF8/TGFβ-1 chimeric construct
T3 chain: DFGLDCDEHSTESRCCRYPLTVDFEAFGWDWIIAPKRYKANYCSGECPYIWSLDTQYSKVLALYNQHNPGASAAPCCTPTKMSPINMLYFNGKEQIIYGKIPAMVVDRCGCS
Protocol: as §1

[4] = target: T1, Human GDF8 homodimer (mature human …); assay: SPR, antibody captured, buffer without BSA
Protocol: Equilibrium dissociation constants (KD values) for antigen binding to selected antibodies were determined by surface kinetics using a real-time biosensor surface plasmon resonance assay (BIACORE™ 2000). Each selected antibody was captured on either a goat anti-mouse IgG polyclonal antibody surface or a goat anti-hFc polyclonal antibody (Jackson Immuno Research Lab) surface created through direct chemical coupling to a BIACORE™ chip to form a captured antibody surface. Human GDF8 homodimer, hGDF11 homodimer, or hGDF5 homodimer at 25 nM was injected over the captured antibody surfaces, and antigen-antibody binding and dissociation were monitored in real time at room temperature. Kinetic analysis was performed to calculate KD, dissociation rate constants (kd), association rate constants (ka) and half-life of antigen/antibody complex dissociation (Table 2).

[5] = target: T1, Human GDF8 homodimer (mature human …); assay: cell-based or functional assay

Kd [1]: 0.071 nM | T1/2 [1]: 2.32 h | binding result [2]: no binding (tested: 2 µg/ml) | binding result [3]: no binding (tested: 2 µg/ml) | Kd [4]: 0.016 nM | T1/2 [4]: 14 h | IC50, luciferase bioassay, 0.5 nM GDF8 [5]: 3.11 nM | IC50, luciferase bioassay, 1 nM GDF8 [5]: 5.55 nM
B1: 8D12 (antibody, V domains shown)
VH: QVQLVESGGGVVQPGRSLRLSCAASGFTFSRYGIHWVRQAPGKGLEWVAVISYDGSDEYYVDSVKGRFSISRDNSKNTLYLQMNSLRPADSAVYYCVKGDLELGFDYWGQGTLVTVSS
VL: DIVMTQAAPSIPVIPGESVSMSCRSSKSLLYSNGHTYVYWFVQRPGQSPQLLIYRMSNLASGVPDRFSGSGSGTAFTLRISRVEAEDVGVYYCMQNLEFPLTFGAGTKLELK
notes: also called antibody 8D12; 8D12 Antibody
